Measurements as given in patent US12624096B2, “Anti-tau antibodies and methods of use thereof” (GTInvent Limited, priority 2020, dated 2026).
“Also recorded” adds a separate entry of the source.

Experiments:
plasma tau [1] = experiment: Plasma tau (Simoa) in L66+/- mice treated with LMTM; assay type: in vivo, mouse
Protocol: The effect of the tau aggregation inhibitor LMTM on the levels of plasma tau in a L66^+/− mouse line was investigated with two assays, both utilising the 3-step Simoa® protocols described above. Using the human specific NT1 assay (BT2 capture with Tau12 detection), low levels of tau (0.41±0.09 pg/ml) were detected in the plasma of 5-month-old L66^+/− that were treated with vehicle control solution (FIG. 50A). At the same time, an increase in tau levels was measured in the plasma of L66^+/− mice that had received an oral administration of LMTM (15 mg/kg) during the time period (1.28±0.11 pg/ml).
This hypothesis was supported by our core-proline antibody assay in which S1D12 antibody coated capture beads and BT2 detector was used (FIG. 50B). This assay detects both human and mouse tau which explains the higher levels of tau detected.

dGAE aggregates [2] = molecular target: T1, dGAE aggregates (Homo sapiens, UniProt P10636); experiment: Epitope occlusion sandwich ELISA (423 mAb capture) of dGAE aggregated with/without LMTM; assay type: binding; settings: LMTM 1:5 ratio
Protocol: During dGAE aggregation in vitro, scAb binding regions on dGA/dGAE are ‘hidden’ or ‘occluded’ which leads to a loss of immunoreactivity in aggregation samples. Here we have shown the occlusion of binding regions in aggregated dGAE samples and the recovery of immunoreactivity in the presence of LMTM, a tau-aggregation inhibitor. For preparing the aggregates, 10 μl 10 mM DTT was added to 1000 μl 100 μM dGAE and agitated with/without LMTM (1:5 ratio) at 700 rpm for 24 h at 37° C. […] The pellet was then resuspended in half the original volume for further experiments. […] Doubling dilutions of dGAE aggregate ‘total’, ‘supernatant’ and ‘pellet’ samples at 10 μg/ml starting concentration were added to designated wells in doubling dilutions in 1×PBS, dGAE monomer (non-aggregated) was included as assay control. All double dilutions were done in final volumes of 100 μl. This was left to incubate on lab bench for 1 h followed by the addition of test scAbs at 10 μg/ml. Anti-HuCk HRP labelled secondary antibody was added as described previously and ELISA data generated is represented using the graph below.

dGAE = dGAE (Homo sapiens, UniProt P10636); experiment: Thioflavin T dGAE aggregation inhibition assay; assay type: biochemical; settings: 10 μM test protein; 100 μM dGAE, 10 mM DTT, 24 h
Protocol: By incubating 100 μM dGAE and 10 mM DTT at 37° C., on a thermomixer at 700 rpm for 24 hours, “pathology mimicking” aggregates which have the morphology of paired helical filaments are formed. This aggregation can be quantified by adding a final concentration of 12.5 μM Thioflavin T (fluorescent dye) which binds to fibril-like β-sheets. Fluorescence was measured with a constant emission wavelength of 480 nm and a scanning excitation wavelength of 350-470 nm using a Varian Cary Eclipse fluorescence spectrophotometer. Maximal fluorescence measurements were used as an indicator of dGAE aggregation (approximately 450 nm excitation). The assay was optimised using a range of S1D12 scAb concentrations (0.04 to 25 µM) and tested for levels of aggregation inhibition as shown in FIG. 35.
Based on FIG. 35, 10 μM scAb was deemed an adequate concentration to compare and rank individual scAb-mediated dGAE aggregation inhibition events. […] A similar inhibition (40%) was seen using 10 μM bovine serum albumin as a negative control (data not shown).

dGAE aggregates [3] = molecular target: T1, dGAE aggregates; experiment: Sandwich ELISA on SDS/Triton X-100 treated dGAE aggregates; assay type: binding; settings: S1D12 mAb capture, S1G2 scAb detection; SDS + Triton X-100 treated
Protocol: For aggregation, 1000 μL 100 μM dGAE+10 μL 10 mM DTT was added to a ‘LoBind’ microfuge tubes and agitated at 700 RPM/37° C., for 24 hours. Resulting sample centrifuged at 17,000×g/4° C., for 60 min and supernatant discarded to remove left over monomer. Pellet resuspended in half the original volume for future experiments and hereafter referred to as ‘aggregates’. 1 μl of aggregates was added to 1 ml of PBS and SDS was added to a final concentration of 1% (w/v). This was left to incubate on lab bench for 1 h with gentle agitation every 15 minutes. In order to neutralise the SDS effect on ELISA, Triton X-100 added to a final concentration of 3% (v/v) and mixed gently by pipetting to prevent any bubble formation. […] Similarly aggregates treated with only SDS or Triton X-100, untreated aggregates, dGAE monomers treated with only SDS or SDS+Titon X-100 were also added to designated wells as controls. All samples were then double diluted across the plate in final volumes of 100 μl. The final column was left with no protein to act as a blank. This was allowed to stand at room temperature for 1 hour followed by the addition of detection scAb-S1G2 at 10 μg/ml. Anti-HuCk HRP labelled secondary antibody was added as described previously and ELISA data generated was represented using the graph below. In addition, limits of detection (LoD) of various core binding antibody pairing for SDS Triton X-100 treated dGAE aggregates were calculated using the above describe ELISA method and substituting capture mAbs and detection scAbs as shown in Table 30.

human tau = molecular target: T2, human tau (Homo sapiens, UniProt P10636, G652D/P618S); experiment: Western blot ratio of human to mouse tau in L66+/+ brain after 6-week S1D12 mAb therapy; assay type: in vivo; settings: L66+/+ mice, 30 mg/kg i.p. weekly for 6 weeks vs vehicle, S1G2 detection
T2 construct: sample A with 5 nM full length human tau (hT40); from tissue; host or cells: brain homogenate of L66+/+ transgenic mice expressing the human tau transgene
Protocol: (§1) In a six-week repeat-dose study, a total of 12 WT, 12 Line 1 (L1) and 12 Line 66 homozygotes (L66+/*) female mice aged 2-months at the beginning of the study were used (Table 32 for group size). Mice in each genotype were injected intraperitoneally (i.p.) with either vehicle or S1D12 (30 mg/kg), once per week, for six consecutive weeks.
A hemisphere of each Line 66^+/+ mouse brain was suspended in RIPA buffer and homogenised. Samples were left on ice for 1 hour and subsequently centrifuged for 10 minutes at 10,000×g at 4° C. The supernatant was collected, and the total protein was quantified using a BCA Protein Assay Kit. Brain homogenate supernatant from each mouse was separated via sodium dodecyl sulphate polyacrylamide gel electrophoresis (SDS-PAGE) with MES running buffer. […] Following washing, the secondary antibody, sheep anti-mouse IgG-HRP, was added, and the membrane was washed five times with PBST and developed with Clarity Western ECL Substrate and read using a BioSpectrum Gel imaging System (UVP). Results were analysed using ImageJ-Fiji (NIH, Version 1.53) where densitometric analysis was performed and the ratio of human to mouse tau densities was calculated.

plasma tau [4] = experiment: Plasma tau (Simoa) after S1D12 immunotherapy; assay type: in vivo, mouse; parameters: plasma tau, core and proline region pairing (S1G2-BT2) / plasma tau, proline region pairing (BT2-HT7): unit not given here
Protocol: as §1
Three-step assays were performed and analysed as per previously described plasma screening methods in this document.

[5] = Pharmacokinetic study of S1D12 mAb, single dose, plasma and brain (dGAE ligand binding ELISA); assay type: in vivo, mouse; settings: single dose 30 mg/kg i.p., NMRI mice
Protocol: For the PK study, a total of 42 female NMRI mice (Swiss-type mouse, Naval Medical Research Institute) aged 6 months were allocated into six groups according to sample collection time (Table 30 for group size). Animals were injected intraperitoneally with S1D12 (30 mg/kg) and sacrificed 24-, 48-, 72-hours and 7-, 14- and 31-days after injection to collect blood and brain samples. A control group was also included in which animals were sacrificed to collect blood and brain, but no test item was administered.
Blood samples were centrifuged to obtain plasma at 2000×g for 5 min at 6° C., and samples were stored at −20° C. After blood collection, each mouse was perfused with heparinized saline for 2-3 minutes and the entire brain removed rapidly and snap frozen in liquid nitrogen and stored at −80° C.
Briefly, dGAE (1 μg/mL) was used to coat ELISA plates and blocked with 2% Marvel. […] Following washing, HRP-conjugated anti-mouse IgG as detector was added, and the assay developed using TMB solution as normal. The absorbance at 450 nm was read using a Clariostar plate reader (BMG Labtech) and MARS Clariostar software used to calculate S1D12 concentration from a standard curve.
Average values from each group (representing a time point) was plotted (FIG. 10) and the in vivo half-life, Cmax and Tmax calculated by performing a non-compartmental analysis of the plasma data using the PKSolver2.0 software (FIG. 51, Table 31). […] Here a higher coating concertation of dGAE at 10 μg/ml was used to compete off antibody binding to tau present in the brain.

aggregated dGAE = aggregated dGAE (Homo sapiens, UniProt P10636); experiment: Capture ELISA ranking of mAbs on dGAE aggregates; assay type: binding; settings: 1 μg/ml capture mAb, 800 nM aggregated dGAE
Protocol: The aggregation cascade of natively unfolded tau into insoluble filaments is a defining pathological feature of AD. Therefore, it is logical to target aggregated tau filaments for both therapeutic and diagnostic purposes. The following experiment was performed to assess the ability of our dGA mAb panel to bind aggregated dGAE using a capture ELISA method. Aggregates were prepared by incubating 100 μM dGAE and 10 mM dTT for 24 h at 37° C. with shaking at 700 RPM. The following day, dGAE aggregates were centrifuged at 17,000×g for 20 min and the supernatant was removed. The remaining pellet was washed with 10 mM phosphate buffer and centrifuged as above. Washing was repeated a further two times to remove any remaining dGAE monomer. The dGAE pellet was resuspended in 100 μl of 10 mM phosphate buffer. (Using a separate capture ELISA based quantification, we have worked out the efficiency of our dGAE aggregation as 80%)
For assessing the mAb panel for aggregate binding, designated rows of a maxisorp plate were coated with 1 μg/ml of each of the capture mAbs (S1D12, S1G2, CA4, NS2A1, CE2, E2E8 and CB7) and blocked as before. Following washing, 800 nM aggregated dGAE was added to the designated wells, double diluted across the plate and incubated for 1 h at RT. The plate was washed again and 1 μg/ml S1G2 scAb was added as detection antibody and incubated for 1 h at RT. To the row where S1G2 mAb was used for capture, […] s1D12 scAb was added as […] instead of S1G2. The assay was developed using HRP labelled HuCK as described previously.

[6] = Six-week repeat-dose study, S1D12 mAb in plasma and brain; assay type: in vivo, mouse
Protocol: as §1
Mice treated with S1D12 were culled seven days after the last dosing whereas vehicle-treated animals were sacrificed the following day, i.e. 8 days post-treatment. Mice were anaesthetized using an overdose of sodium pentobarbital administered intraperitoneally for blood collection. Blood was transferred to plastic vials containing lithium heparin anticoagulant, centrifuged to obtain the plasma and the entire brain was removed as described previously. Plasma and brain samples (stored at −20° C., and −80° C., respectively) were subjected to further biochemical analysis.

T2 sequence (P10636 1-441 isoform P10636-8 P301S/G335D): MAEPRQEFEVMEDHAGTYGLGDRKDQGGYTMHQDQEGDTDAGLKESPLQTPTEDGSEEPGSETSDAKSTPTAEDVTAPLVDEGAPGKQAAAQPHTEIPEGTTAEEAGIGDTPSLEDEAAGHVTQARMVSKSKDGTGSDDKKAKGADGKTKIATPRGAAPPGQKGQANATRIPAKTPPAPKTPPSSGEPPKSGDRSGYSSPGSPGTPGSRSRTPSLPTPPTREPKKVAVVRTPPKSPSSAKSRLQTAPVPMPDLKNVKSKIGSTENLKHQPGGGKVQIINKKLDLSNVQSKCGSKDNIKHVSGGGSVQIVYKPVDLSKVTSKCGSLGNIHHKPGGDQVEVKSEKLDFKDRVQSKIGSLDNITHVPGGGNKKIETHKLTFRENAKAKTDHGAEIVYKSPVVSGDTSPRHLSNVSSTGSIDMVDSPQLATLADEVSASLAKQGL
T1 sequence (P10636 614-708): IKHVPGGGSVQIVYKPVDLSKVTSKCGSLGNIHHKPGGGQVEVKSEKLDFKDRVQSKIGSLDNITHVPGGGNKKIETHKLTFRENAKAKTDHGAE
Chain of dGAE (P10636 614-708): as above
Chain of aggregated dGAE (P10636 614-708): as above

CN(C)c1ccc2c(c1)Sc1cc(N(C)C)ccc1N2.CS(=O)(=O)O.CS(=O)(=O)O [LMTM]
plasma tau, NT1 assay (BT2 capture with Tau12 detection) (plasma tau [1]; 5-month-old L66+/- mice, oral LMTM 15 mg/kg): 1.28 ± 0.11 pg/mL
plasma tau, core-proline assay (S1D12 capture beads, BT2 detector) (plasma tau [1]; L66+/- mice, LMTM 15 mg/kg): 142.08 ± 12.08 pg/mL
effect of LMTM on dGAE aggregation and immunoreactivity (dGAE aggregates [2]): preventing the aggregation event, leading to an increased immunoreactivity

bovine serum albumin: negative control protein in thioflavin T assay [reference compound]
inhibition of dGAE aggregation (dGAE): 40%

B1: S1D12 mAb: S1D12 reformatted as mAb, heavy chain SEQ ID NO: 445, light chain SEQ ID NO: 446 (antibody)
heavy: QVQLQESGPSLVKPSQTLSLTCTVSGFSLNNNAVGWVRQAPGKVPESLVGCSSDGTCYYNSALKSRLDITRDTSKNQISLSLSSVTTDDAAVYYCTRGHYSIYGYDYLGTIDYWGPGLLVTVSSAKTTAPSVYPLAPVCGDTTGSSVTLGCLVKGYFPEPVTLTWNSGSLSSGVHTFPAVLQSDLYTLSSSVTVTSSTWPSQSITCNVAHPASSTKVDKKIEPRGPTIKPCPPCKCPAPNLLGGPSVFIFPPKIKDVLMISLSPIVTCVVVDVSEDDPDVQISWFVNNVEVHTAQTQTHREDYNSTLRVVSALPIQHQDWMSGKEFKCKVNNKDLPAPIERTISKPKGSVRAPQVYVLPPPEEEMTKKQVTLTCMVTDFMPEDIYVEWTNNGKTELNYKNTEPVLDSDGSYFMYSKLRVEKKNWVERNSYSCSVVHEGLHNHHTTKSFSRTPGK
light: QAVLTQPSSVSGSLGQRVSITCSGSSSNVGGGNSVGWYQHLPGSGLKTIIYDTNSRPSGVPDRFSGSRSGNTATLTINSLQAEDEGDYYCVTGDSTTHDDLVGSGTRLTVLGGQPKSSPSVTLFPPSSEELETNKATLVCTITDFYPGVVTVDWKVDGTPVTQGMETTQPSKQSNNKYMASSYLTLTARAWERHSSYSCQVTHEGHTVEKSLSRADCS
modifications: S1D12 mAB Heavy Chain; S1D12 mAB Light Chain
dGAE aggregates detectable in sandwich ELISA (dGAE aggregates [3]): approximately 2 ng/ml
ratio of human tau to mouse tau in brain (human tau): A decrease in the ratio of human tau to mouse tau; also recorded: A decrease in the levels of human tau was observed
difference in plasma tau vs vehicle, S1G2-BT2 (plasma tau [4]; L1 and wildtype mice): not statistically significant
plasma tau, core and proline region pairing (S1G2-BT2) (plasma tau [4]; L66+/+ mice, S1D12 mAb 30 mg/kg weekly for 6 weeks): 1438±275
increase in plasma tau vs vehicle, S1G2-BT2 (plasma tau [4]; L66 mice): more than a threefold increase
plasma tau, proline region pairing (BT2-HT7) (plasma tau [4]; L66 mice, S1D12 mAb 30 mg/kg weekly for 6 weeks): 127±55
Tmax in the brain [5]: 48 h
Cmax ([5]; read-out: Cmax in the brain): 6.2 nM
ability to capture aggregated dGAE (aggregated dGAE): most efficient at capturing aggregated dGAE
increase in S1D12 concentration in plasma following repeat dosing ([6]; WT mice, 30 mg/kg once per week for 6 weeks vs single dose, 7 days post dose): > 3 fold
plasma S1D12 antibody crossing the blood brain barrier ([6]; WT, L1 and L66+/+ mice, 30 mg/kg weekly for 6 weeks): 0.15-0.3%
